Measurements: publication PMC3975505

Target: lnkH2B-H2A.Z (linked H2B-H2A.Z, single polypeptide chain) (human) (UniProt Q16778)
Experiment: AUC

EEEEEEEEEDEDEDEDEDEAGSELGEGEEEVGLSYLMKEEIQDEEDD (domain or fragment) [Anp32e_(186-232)]
stoichiometry N: 1
